The numbers were not newly measured in publication PMC11988861, “Step Enzymatic Hydrolysis and In Silico Screening-Assisted Preparation of Bioactive Peptides from Abalone” (Foods, 2025), which cites them from elsewhere.

The data set has as its target ACE (Homo sapiens, UniProt P12821). More on the design: method as in PMID 35323475. To be noted: literature ACEi peptides from skipjack tuna muscle.

ACE, sequence (P12821 30-1306, species assumed): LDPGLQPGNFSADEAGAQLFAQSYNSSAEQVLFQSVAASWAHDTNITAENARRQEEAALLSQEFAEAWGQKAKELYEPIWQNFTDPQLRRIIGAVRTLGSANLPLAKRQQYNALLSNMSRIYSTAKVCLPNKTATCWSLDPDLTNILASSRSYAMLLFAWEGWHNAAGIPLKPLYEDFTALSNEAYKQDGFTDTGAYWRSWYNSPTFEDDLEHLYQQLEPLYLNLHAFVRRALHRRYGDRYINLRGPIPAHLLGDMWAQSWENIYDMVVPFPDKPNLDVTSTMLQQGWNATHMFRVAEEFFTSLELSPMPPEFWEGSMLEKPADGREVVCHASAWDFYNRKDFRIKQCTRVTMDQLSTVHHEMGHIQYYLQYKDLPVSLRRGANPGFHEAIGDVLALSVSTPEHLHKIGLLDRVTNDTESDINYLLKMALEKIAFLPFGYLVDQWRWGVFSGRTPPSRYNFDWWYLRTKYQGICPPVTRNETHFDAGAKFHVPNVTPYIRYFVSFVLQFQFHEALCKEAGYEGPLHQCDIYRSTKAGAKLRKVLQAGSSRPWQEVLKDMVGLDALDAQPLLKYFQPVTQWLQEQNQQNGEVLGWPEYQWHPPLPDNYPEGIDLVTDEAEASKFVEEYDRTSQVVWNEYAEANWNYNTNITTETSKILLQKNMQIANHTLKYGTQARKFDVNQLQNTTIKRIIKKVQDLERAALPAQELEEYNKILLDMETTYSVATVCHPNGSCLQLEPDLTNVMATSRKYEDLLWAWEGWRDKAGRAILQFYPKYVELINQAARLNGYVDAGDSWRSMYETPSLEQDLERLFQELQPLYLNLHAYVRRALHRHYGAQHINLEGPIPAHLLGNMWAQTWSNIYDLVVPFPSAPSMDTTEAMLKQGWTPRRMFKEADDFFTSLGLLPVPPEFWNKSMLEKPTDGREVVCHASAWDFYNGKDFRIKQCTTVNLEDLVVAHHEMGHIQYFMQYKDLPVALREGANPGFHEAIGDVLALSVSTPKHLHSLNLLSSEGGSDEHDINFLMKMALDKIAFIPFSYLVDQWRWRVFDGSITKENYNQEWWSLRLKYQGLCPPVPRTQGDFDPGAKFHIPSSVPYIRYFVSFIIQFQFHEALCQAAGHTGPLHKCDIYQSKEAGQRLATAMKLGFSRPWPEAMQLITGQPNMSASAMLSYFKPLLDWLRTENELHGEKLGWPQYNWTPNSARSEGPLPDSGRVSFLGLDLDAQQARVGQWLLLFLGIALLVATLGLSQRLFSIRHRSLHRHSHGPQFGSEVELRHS

With VDRYF, the “ACEi IC50” value is 280 µg/mL.
